In patent US20140050720A1, “ULTRALONG COMPLEMENTARITY DETERMINING REGIONS AND USES THEREOF” (THE SCRIPPS RESEARCH INSTITUTE, priority 2012, published 2014):

Assays:
[1] = test system: human peripheral blood mononuclear cells (PBMCs); assay: Inhibition of human PBMC activation (secreted TNF-α ELISA); type: cell-based; settings: PBMCs activated by anti-CD3 and CD28 antibodies, 24 h
Description: Human PBMCs were isolated from fresh venous blood of healthy donors through ficoll gradient centrifugation, followed by resuspension in RPMI1640 medium with 10% FBS and plating in 96-well plates at a density of 1×10^6 cells/mL. Human T cells were purified from the isolated PBMCs using T cell enrichment kit. Purified PBMCs and T cells were pretreated for 1 h at 37° C. with 5% CO2 with various concentrations of purified BLV1H12-Moka1 fusion antibodies and then activated by anti-CD3 and CD28 antibodies. After 24 h treatment, supernatant was collected for measurement of the levels of secreted TNF-α using ELISA kit.

GLP-1 receptor (GLP-1R) = molecular target: T1, GLP-1 receptor (GLP-1R) (Homo sapiens, UniProt P43220); assay: GLP-1R activation, cAMP responsive luciferase reporter in HEK293 cells; type: cell-based; settings: HEK293 cells expressing GLP-1R, 24 h
T1 construct: expressed in transfected cells; host or cells: HEK293 cells expressing surface GLP-1R and a cAMP responsive luciferase reporter
T1 sequence (P43220 24-463, species assumed): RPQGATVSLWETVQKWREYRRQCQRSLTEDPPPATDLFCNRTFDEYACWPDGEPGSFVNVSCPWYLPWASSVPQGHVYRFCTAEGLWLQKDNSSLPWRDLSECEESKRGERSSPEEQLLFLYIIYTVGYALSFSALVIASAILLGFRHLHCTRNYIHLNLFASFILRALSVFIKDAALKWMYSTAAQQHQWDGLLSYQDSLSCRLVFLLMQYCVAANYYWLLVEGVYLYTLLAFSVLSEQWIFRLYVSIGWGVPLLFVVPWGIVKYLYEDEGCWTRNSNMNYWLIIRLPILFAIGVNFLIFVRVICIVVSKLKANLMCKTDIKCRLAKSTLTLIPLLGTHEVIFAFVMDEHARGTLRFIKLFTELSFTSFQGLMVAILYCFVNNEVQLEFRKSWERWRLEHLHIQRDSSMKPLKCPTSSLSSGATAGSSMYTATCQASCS
Description: HEK293 cells expressing surface GLP-1R and cAMP responsive luciferase reporter gene were seeded in 384 well plates at a density of 5000 cells per well. […] Subsequently, luciferase assay was performed using One-Glo luciferase reagent according manufacture's instruction (Promega).
HEK293 cells expressing surface GLP-1R and cAMP responsive luciferase reporter gene were seeded in 384 well plates at a density of 5000 cells per well. After 24 h incubation at 37° C. with 5% CO2, cells were treated with various concentrations of peptides and BLV1H12-GLP-1 clip fusion proteins and incubated for another 24 h. Subsequently, luciferase assay was performed using One-Glo luciferase reagent according manufacture's instruction (Promega).

mice neutrophils = assay: Neutrophils counts in mice; type: in vivo; settings: mice blood, 10th day post-injection, neutrophils among white blood cells
Description: On the 10th day after injection of BLV1H12-bGCSF fusion antibodies into mice for PK study, blood samples were drawn from the mice and stained using the Diff Quick Staining Kit (Thermo Fisher Scientific, IL). Neutrophils and white blood cells were counted under microscope and the percentages of neutrophils were analyzed. FIGS. 12A-12B and Table 12 show proliferative activities of BLV1H12-bGCSF fusion antibodies on mice neutrophils that are blood stained and counted at the 10th day post-injection.

Mouse NFS-60 cells = assay: Proliferation assay on mouse NFS-60 cells (AlamarBlue); type: cell-based; settings: for F.I. (AlamarBlue fluorescence at 595 nm, cell viability): 72 hours
Description: Mouse NFS-60 cells were obtained from American Type Culture Collection (ATCC), VA, and cultured in RPMI-1640 medium supplemented with 10% fetal bovine serum (FBS), 0.05 mM 2-mercapoethanol and 62 ng/ml human macrophage colony stimulating factor (M-CSF). For proliferation assay, mouse NFS-60 cells were washed three times with RPMI-1640 medium and resuspended in RPMI-1640 medium with 10% FBS and 0.05 mM 2-mercapoethanol at a density of 1.5×10^5 cells/ml. In 96-well plates, 100 μl of cell suspension was added into each well, followed by the addition of varied concentrations of bGCSF, BLV1H12 antibody, and the immunoglobulin constructs described herein, Equal volume of PBS buffer was added into the control wells. The plates were incubated at 37° C. in a 5% CO2 incubator for 72 hours. Cells were then treated with AlamarBlue (Invitrogen) ( 1/10 volume of cell suspension) for 4 hours at 37° C. Fluorescence at 595 nm for each well was read to indicate the cell viability.

CXCR1-U2OS = molecular target: T2, CXCR1-U2OS (Homo sapiens, UniProt P25024); assay: Flow cytometry binding to CXCR1 expressing cells; settings: CXCR1-U2OS cells, cell culture supernatant containing expressed IgG, anti-Human Fc detection
T2 construct: host or cells: U2OS-derived CXCR1 cell line, purchased
T2 sequence (P25024 1-350): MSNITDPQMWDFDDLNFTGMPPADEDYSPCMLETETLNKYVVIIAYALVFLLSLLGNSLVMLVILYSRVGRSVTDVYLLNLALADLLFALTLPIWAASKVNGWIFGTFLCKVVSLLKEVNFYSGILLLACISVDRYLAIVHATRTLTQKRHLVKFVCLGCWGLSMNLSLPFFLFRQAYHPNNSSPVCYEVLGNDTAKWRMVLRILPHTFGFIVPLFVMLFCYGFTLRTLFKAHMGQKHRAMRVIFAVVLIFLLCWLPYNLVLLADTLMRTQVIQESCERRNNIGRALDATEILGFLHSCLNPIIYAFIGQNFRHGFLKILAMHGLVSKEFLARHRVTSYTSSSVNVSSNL
Description: Briefly, a cell line expressing functionally validated CXCR1 derived from U2OS cells was obtained from DiscoveRx and cultured per manufacturer's instructions (Cat#93-0226C3, DiscoveRx Corporation, Freemont, Calif.). The parental cell line U20S was obtained from ATCC and cultured under the same conditions as the CXCR1 cells. Cell culture supernatants from Example 2 above were then tested for binding to cells by flow cytometry. The adherent U20S or CXCR1-U20S cells were dissociated with Accutase (Innovative Cell Technologies, Inc., San Diego, Calif.), neutralized with an equal volume of media containing 10% serum, centrifuged at 1000 g, and resuspended in PBS with 2% BSA. Next, cells were dispensed into microtiter plates to achieve between 30,000 to 300,000 cells per well, centrifuged again, and resuspended in cell culture supernatant containing expressed IgG, or a dilution of IgG-containing cell culture supernatant. A fluorescent-conjugated anti-Human Fc antibody was used to detect binding of the expressedBLV1H12-IL8 fusion proteins to cells.

B1: Ab: bovine BLV1H12 antibody with ultralong CDR3, no inserted polypeptide; heavy chain SEQ ID NO: 24, light chain SEQ ID NO: 23 (antibody)
heavy: QVQLRESGPSLVKPSQTLSLTCTASGFSLSDKAVGWVRQAPGKALEWLGSIDTGGNTGYNPGLKSRLSITKDNSKSQVSLSVSSVTTEDSATYYCTSVHQETKKYQSCPDGYRERSDCSNRPACGTSDCCRVSVFGNCLTTLPVSYSYTYNYEWHVDVWGQGLLVTVSS
light: QAVLNQPSSVSGSLGQRVSITCSGSSSNVGNGYVSWYQLIPGSAPRTLIYGDTSRASGVPDRFSGSRSGNTATLTISSLQAEDEADYFCASAEDSSSNAVFGSGTTLTVLGQPKSPPSVTLFPPSTEELNGNKATLVCLISDFYPGSVTVVWKADGSTITRNVETTRASKQSNSKYAASSYLSLTSSDWKSKGSYSCEVTHEGSTVTKTVKPSECS
F.I. (secreted TNF-α, ELISA) ([1]; 2 nM): 2334 | F.I. (secreted TNF-α, ELISA) ([1]; 20 nM): 2186 | F.I. (secreted TNF-α, ELISA) ([1]; 200 nM): 1982 | F.I. (secreted TNF-α, ELISA) ([1]; 400 nM): 1733 | RLU (luciferase reporter) (GLP-1 receptor (GLP-1R); 1.26953 nM): 5200 | RLU (luciferase reporter) (GLP-1 receptor (GLP-1R); 2.53906 nM): 5000 | RLU (luciferase reporter) (GLP-1 receptor (GLP-1R); 5.07813 nM): 5600 | RLU (luciferase reporter) (GLP-1 receptor (GLP-1R); 10.15625 nM): 5500 | RLU (luciferase reporter) (GLP-1 receptor (GLP-1R); 20.3125 nM): 5380 | RLU (luciferase reporter) (GLP-1 receptor (GLP-1R); 40.625 nM): 4600 | RLU (luciferase reporter) (GLP-1 receptor (GLP-1R); 81.25 nM): 6140 | RLU (luciferase reporter) (GLP-1 receptor (GLP-1R); 162.5 nM): 5760 | RLU (luciferase reporter) (GLP-1 receptor (GLP-1R); 325 nM): 5600 | RLU (luciferase reporter) (GLP-1 receptor (GLP-1R); 650 nM): 5800 | RLU (luciferase reporter) (GLP-1 receptor (GLP-1R); 1300 nM): 14000 | Percentage of Neutrophil (mice neutrophils): 18.81 | proliferative activity on mouse NFS-60 cells (Mouse NFS-60 cells): lack of proliferative activity | F.I. (AlamarBlue fluorescence at 595 nm, cell viability) (Mouse NFS-60 cells; 0.45725 ng/mL): 1040 | F.I. (AlamarBlue fluorescence at 595 nm, cell viability) (Mouse NFS-60 cells; 1.37174 ng/mL): 1010 | F.I. (AlamarBlue fluorescence at 595 nm, cell viability) (Mouse NFS-60 cells; 4.11523 ng/mL): 983.3 | F.I. (AlamarBlue fluorescence at 595 nm, cell viability) (Mouse NFS-60 cells; 12.34568 ng/mL): 971.8 | F.I. (AlamarBlue fluorescence at 595 nm, cell viability) (Mouse NFS-60 cells; 37.03704 ng/mL): 960.5 | F.I. (AlamarBlue fluorescence at 595 nm, cell viability) (Mouse NFS-60 cells; 111.11111 ng/mL): 991.83 | F.I. (AlamarBlue fluorescence at 595 nm, cell viability) (Mouse NFS-60 cells; 333.33333 ng/mL): 964.798 | Median Arbitrary Fluorescence Units (AFU) (CXCR1-U2OS): 4 AFU
